Here are results for 2 molecules from patent publication US20090275511A1 (IPSEN PHARMA S A S, published 2009).

For the experiment, the target named is T1, human GH secretagogue receptor (human, UniProt Q92847 1-366).
T1 construct: whole, on cells; the Ca2+ assay used the whole cells; also called hGHS-R; ghrelin receptor
In words: competition with 0.05 nM (125I)ghrelin on membranes of CHO-K1 cells expressing hGHS-R, filtration. As to the method: The homogenates were washed twice by centrifugation (39,000 g/10 minutes) and the final pellets were resuspended in about 50 mM Tris-HCl containing 2.5 mM MgCl₂ and 0.1% bovine serum albumin (BSA). For the selected assay, aliquots of approximately 0.4 ml were incubated with 0.05 nM (¹²⁵I)ghrelin (˜2000 Ci/mmol; Perkin Elmer Life Sciences®, Boston, Mass., U.S.A.) with and without 0.05 ml of unlabeled competing test peptide.

Numbered stars: 1 amine (or outer) side, 2 acyl side, 3 side chain; on linkers, the order of the positions; unused ones are H or OH. Square brackets hold non-standard residues; d marks the D form. Glu(NH-hexyl) = N5-hexyl-L-glutamine (glutamic acid gamma-hexylamide), CCCCCCNC(=O)CC[C@H](N[*:1])C(=O)[*:2]; 1‑Apc = not defined here; Aib = CC(C)(N)C(=O)O

T1 sequence (Q92847 whole entry): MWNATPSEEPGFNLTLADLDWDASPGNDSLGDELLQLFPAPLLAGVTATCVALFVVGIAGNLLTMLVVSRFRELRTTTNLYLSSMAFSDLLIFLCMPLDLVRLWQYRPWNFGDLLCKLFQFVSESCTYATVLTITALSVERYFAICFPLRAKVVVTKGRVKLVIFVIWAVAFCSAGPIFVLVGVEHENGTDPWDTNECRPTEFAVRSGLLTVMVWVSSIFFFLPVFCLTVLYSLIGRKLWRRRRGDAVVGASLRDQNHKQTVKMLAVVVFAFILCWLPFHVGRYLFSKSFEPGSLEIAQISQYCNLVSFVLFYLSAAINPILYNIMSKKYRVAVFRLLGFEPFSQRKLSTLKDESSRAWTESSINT

B1: (Ac-1-Apc^1, Aib^2,10, Glu(NH-hexyl)^3)hGhrelin(1-28)-NH2 (peptide)
peptide: Ac-[1‑Apc][Aib][Glu(NH-hexyl)]FLSPEH[Aib]RVQQRKESKKPPAKLQPR-NH2
modifications: reading uncertain
notes: Synthetic analog of human ghrelin(1-28)
Take B1: the affinity corresponds to a Ki of 40 nM.

B2: (Ac-Inp^1, Aib^2,10, Glu(NH-hexyl)^3)hGhrelin(1-28)-NH2 (peptide)
peptide: XXEFLSPEHXRVQQRKESKKPPAKLQPR
HELM: PEPTIDE1{[ac].[O=C(C1CCN([*:1])CC1)[*:2]].[Aib].[CCCCCCNC(=O)CC[C@H](N[*:1])C(=O)[*:2]].F.L.S.P.E.H.[Aib].R.V.Q.Q.R.K.E.S.K.K.P.P.A.K.L.Q.P.R.[am]}$$$$V2.0
SMILES: CCCCCCNC(=O)CC[C@H](NC(=O)C(C)(C)NC(=O)C1CCN(C(C)=O)CC1)C(=O)N[C@@H](Cc1ccccc1)C(=O)N[C@@H](CC(C)C)C(=O)N[C@@H](CO)C(=O)N1CCC[C@H]1C(=O)N[C@@H](CCC(=O)O)C(=O)N[C@@H](Cc1c[nH]cn1)C(=O)NC(C)(C)C(=O)N[C@@H](CCCNC(=N)N)C(=O)N[C@H](C(=O)N[C@@H](CCC(N)=O)C(=O)N[C@@H](CCC(N)=O)C(=O)N[C@@H](CCCNC(=N)N)C(=O)N[C@@H](CCCCN)C(=O)N[C@@H](CCC(=O)O)C(=O)N[C@@H](CO)C(=O)N[C@@H](CCCCN)C(=O)N[C@@H](CCCCN)C(=O)N1CCC[C@H]1C(=O)N1CCC[C@H]1C(=O)N[C@@H](C)C(=O)N[C@@H](CCCCN)C(=O)N[C@@H](CC(C)C)C(=O)N[C@@H](CCC(N)=O)C(=O)N1CCC[C@H]1C(=O)N[C@@H](CCCNC(=N)N)C(N)=O)C(C)C
notes: as for B1
For the molecule B2, the affinity corresponds to a Ki of 370 nM.
